Test results as given in PMC7957560, “The Functional Role of Loops and Flanking Sequences of G-Quadruplex Aptamer to the Hemagglutinin of Influenza a Virus”.

Assays:
[1] = biological target: T1, recombinant hemagglutinin HA1 subunit (rHA, H5) (Influenza A virus A/Vietnam/1203/2004 …, UniProt Q5EP31 17-346); assay: BLI; rHA immobilized; apparent KD; BLI at 30 C in sodium-potassium phosphate buffer pH 7.4 ([…]; conditions: protein: commercial, label: none (rHA), 5'-biotin (vHA BLI)
[2] = biological target: T1, recombinant hemagglutinin HA1 subunit …; assay: BLI; 50 nM control, reference signal; BLI at 30 C in sodium-potassium phosphate buffer pH 7.4 ([…]; conditions: protein: commercial; label: none (rHA); 5'-biotin (vHA BLI)

Binder	Kd [1] [nM]	further results
GGGTGGGTGGGAGGG (structured_DNA) [G7nt-T_T_A]	0.8 ± 0.2	–
GGGTGGGAGGGTGGG (structured_DNA) [G7nt-T_A_T]	0.6 ± 0.2	–
TTGGGGTTATTAAGGGAGGGCGGGGGTT (structured_DNA) [G7-TTATTAA_A_C]	–	Kd ([1]; parallel G4, 77% monomer): 0.4 ± 0.2 nM
TTGGGGTTATTTTGGGAGGGCGGGGGTT (structured_DNA) [RHA0385]	0.6 ± 0.3	–
GGGAGGGTGGGTGGG (structured_DNA) [G7nt-A_T_T]	0.4 ± 0.2	–
CGACGCACCATTTGTTTAATATGTTTTTTAATTCCCCTTGTGGTGCGTCG (ssDNA) [control oligonucleotide]	–	binding result [2]: no binding
GGGTTATTTTGGGAGGGCGGG (structured_DNA) [G7nt]	–	Kd ([1]; parallel G4, 74% monomer): 0.7 ± 0.3 nM
TTGGGGTTAGGGAGGGCGGGGGTT (structured_DNA) [G7-TTA_A_C]	–	Kd ([1]; parallel G4, 86% monomer): 0.4 ± 0.2 nM
TTGGGGTTATTTTGGGAGGGCGGG (structured_DNA) [G7n3t]	–	Kd ([1]; parallel G4, 100% monomer): 0.4 ± 0.2 nM
GGGAGGGAGGGAGGG (structured_DNA) [G7nt-A_A_A]	0.6 ± 0.4	–
GGGTGGGTGGGTGGG (structured_DNA) [G7nt-T_T_T]	0.7 ± 0.2	–
GGGTTATTTTGGGAGGGCGGGGGTT (structured_DNA) [G7n5t]	–	Kd ([1]; parallel G4, 74% monomer): 0.3 ± 0.2 nM
